Laboratory results as given in the supplement of paper PMC9732359.
± gives the uncertainty stated by the source.

Assay: protein stability index of a GFP-peptide fusion (yeast GPS) (PSI 1-4); higher = more stable; sorted into four equal gates, so the index is relative within each strain
Method in brief: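 Tiled yeast protein peptides of 17 residues were each joined downstream of GFP, on plasmids that also express Cherry. The pooled library was maintained in yeast, and mid-log cultures in leucine-free medium were sorted into four equal gates on the GFP/Cherry ratio. Plasmids from every gate were amplified by PCR and sequenced on Illumina, with barcodes linking reads to strains. The protein stability index of a peptide is its gate-number-weighted read frequency summed over the gates.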

Sequence	protein stability index (doa10∆)	protein stability index (pdr5∆)	protein stability index (san1∆)	protein stability index (ubr1∆)
VVVAETSPEKKDGGDKP [YAR002W/NUP60]	2.85 ± 0.19	3.23 ± 0.24	2.72 ± 0.13	3.44 ± 0.2
VWGSETVASSKVGYTLP [RPL4A]	3.03 ± 0.059	3.15 ± 0.049	3.14 ± 0.034	3.156 ± 0.031
VYDFYGRHVATCSSDQH [YGL100W/SEH1]	2.75 ± 0.068	2.32 ± 0.06	2.43 ± 0.072	2.2 ± 0.049
VYEYVIASTLGPSAMRL [RPC82]	2.38 ± 0.21		1.6 ± 0.14	1.23 ± 0.097
VYFGDENKVMLPRCSKE [RRI2]	3.24 ± 0.091	3.37 ± 0.089	3.11 ± 0.074	3.13 ± 0.063
VYKFMSLAKSSALWSSR [ECM29]		1.97 ± 0.16	1.39 ± 0.2	1.74 ± 0.29
VYNLALKCAERQLTSME [NUT1]	2.38 ± 0.073	2.2 ± 0.052	2.09 ± 0.07	2.31 ± 0.029
VYPITLSTDATSADLKS [UBP6]	2.32 ± 0.063	2.53 ± 0.063	2.49 ± 0.078	2.4 ± 0.059
VYREVCAACHSLDRVAW [CYT1]	3.36 ± 0.26	3.04 ± 0.12	2.71 ± 0.17	2.86 ± 0.13
VYSKQATFLLTDIKDTL [MCD1]	2.27 ± 0.062	2.3 ± 0.076	2.23 ± 0.086	2.3 ± 0.057
VYYSKRGFKVGLVCADT [SRP54]	2.41 ± 0.12	2.29 ± 0.073	2.19 ± 0.098	2.5 ± 0.054
WDLLPEPIRFLPNQFPL [SWI1]	2.54 ± 0.059	2.58 ± 0.071	2.26 ± 0.054	2.31 ± 0.069
WDLSVEDALYLGKRSIL [PRE2]	3.4 ± 0.06	3.34 ± 0.056	3.17 ± 0.064	3.39 ± 0.048
WGHPTRMLLNLCKSATT [BRR2]	1.47 ± 0.047	1.55 ± 0.046	1.75 ± 0.066	1.35 ± 0.046
WIVVLPWFWLLPLWHLL [POP1]	2.4 ± 0.092	1.21 ± 0.057	1.14 ± 0.13	1.07 ± 0.046
WKRQISYFLKLLGNCYS [SRB8]	1.63 ± 0.038	1.82 ± 0.042	1.69 ± 0.071	1.37 ± 0.037
WNKRDFMAFINACAKYG [ISW2]	1.21 ± 0.087	1.24 ± 0.092	1.34 ± 0.26	1.15 ± 0.063
WQYIVIDEAHRIKNEQS [ISW2]	1.48 ± 0.075	1.64 ± 0.08	1.23 ± 0.11	2.24 ± 0.071
WREQLRNRDIALFQPPN [ROX3]	2.31 ± 0.066	2.95 ± 0.066	2.73 ± 0.059	1.96 ± 0.047
WRKDAQGNYPTTSYIKE [DPB4]	2.94 ± 0.092	2.88 ± 0.069	2.92 ± 0.069	2.56 ± 0.064
WSFDLPEMSNLYRLSTP [PRP8]	2.71 ± 0.049	2.71 ± 0.04	2.59 ± 0.038	2.67 ± 0.043
WTSTQRHHWQYTKASLA [SSN8]	1.26 ± 0.093	1.38 ± 0.095	1.42 ± 0.16	1.46 ± 0.073
WVQLVQIIVTDGKLEPS [YJL039C/NUP192]	1.27 ± 0.065	1.32 ± 0.085	1.19 ± 0.098	1.27 ± 0.07

Sequence	protein stability index (doa10∆)	protein stability index (pdr5∆)	protein stability index (san1∆)	protein stability index (ubr1∆)
WVYKTKGDGMTSAVASI [RPN1]	2.75 ± 0.27	3.14 ± 0.19	2.57 ± 0.23	2.97 ± 0.14
WYIEKVIRIPMQENDKI [CSI1]	3.05 ± 0.14	2.78 ± 0.1		3.02 ± 0.14
WYKVAKNVGNKSPEQCI [SWI3]	2.98 ± 0.097	3.27 ± 0.07	3.07 ± 0.093	3.08 ± 0.05
YAKDILQKEFLPHITQL [RPB2]	1.76 ± 0.047	1.8 ± 0.04	1.4 ± 0.065	1.38 ± 0.031
YALFLKALRRKIYINLA [SSN2]	1.62 ± 0.092	1.31 ± 0.067	1.35 ± 0.12	1.47 ± 0.085
YATKLSKFTKIPPTFDK [MED4]	3.08 ± 0.089	3.28 ± 0.084	3.29 ± 0.08	2.87 ± 0.14
YCDSMGRPQRKMMSFQA [RPB5]	3.5 ± 0.12	3.19 ± 0.13	3.48 ± 0.058	3.3 ± 0.09
YCHEKELTIIKNPRVTK [CSN9]	2.55 ± 0.098	2.29 ± 0.18	2.14 ± 0.2	2.13 ± 0.13
YCKGKTCRKHTQHKVTQ [RPL42A]	2.77 ± 0.094	3.06 ± 0.17	2.54 ± 0.12	2.91 ± 0.14
YCSGNIYDFHKMENLMR [YJL039C/NUP192]	2.77 ± 0.068	2.79 ± 0.059	2.52 ± 0.05	2.73 ± 0.052
YDGVERVSLQDIKDFAD [QCR2]	2.84 ± 0.1	2.75 ± 0.1	2.5 ± 0.076	2.41 ± 0.089
YDLMAPNGHISTKKIQV [YMR129W/POM152]	2.15 ± 0.08	2.06 ± 0.07	1.5 ± 0.085	1.94 ± 0.05
YDLNFKLRETLVKIDDL [SMC1]	3.05 ± 0.15	3.13 ± 0.13	3.01 ± 0.13	2.68 ± 0.14
YDTTPLLDTNSLEENAM [SKI6]	3.08 ± 0.12	2.96 ± 0.082	2.97 ± 0.15	2.88 ± 0.078
YENKQLYFPDDYPFTQL [POP1]	2.92 ± 0.048	2.99 ± 0.039	2.93 ± 0.043	3.01 ± 0.036
YESRNVAKRRFEYSKYR [RRP6]	3.16 ± 0.072	3.4 ± 0.087	3.29 ± 0.041	3.3 ± 0.079
YFFYASRPEYSCTFWSD [YJL039C/NUP192]	1.22 ± 0.069	1.52 ± 0.084	1.31 ± 0.14	1.62 ± 0.054
YGFSNKEYISRLWHTLK [SNF5]	1.57 ± 0.098	2.56 ± 0.21	2.39 ± 0.2	1.19 ± 0.13
YGNPTSKESWRYDWYQP [RTT102]	2.05 ± 0.1	2.27 ± 0.082	2 ± 0.071	2.03 ± 0.035
YGTRPLVLPPVVTSSVA [SNF2]	2.04 ± 0.086	2.06 ± 0.071	1.76 ± 0.12	1.94 ± 0.051
YGYFSVGKRVPIVEDRR [SIR4]	3.12 ± 0.12	2.28 ± 0.1	2.16 ± 0.13	2.75 ± 0.26
YHLLNYDPIKRIDAFNA [SSN3]	2.33 ± 0.065	1.77 ± 0.04	1.6 ± 0.074	1.73 ± 0.031
